Measurements: patent US20100068217A1

What was measured:
[1] = biological target: MPER WT peptide; assay: ELISA, antigen on the plate, 2F5 IgG titrated 2.6e-7 to 1e-1 ug/ul
[2] = biological target: gp41e-1KU2 (Thermus aquaticus (origin of the scaffold protein, Table 1)); assay: as above
[3] = biological target: MPER Cyclized peptide (HIV-1 gp41 MPER-derived, synthetic); assay: kinetics with 2F5 as analyte (Biacore per paragraph 255)
[4] = biological target: MPER WT peptide; assay: as above
[5] = biological target: gp41e-1KU2 (Thermus aquaticus (origin of the scaffold protein, Table 1)); assay: as above
[6] = biological target: gp41e-1LGY (Rhizopus niveus (origin of the scaffold protein, Table 1)); assay: as above
[7] = biological target: gp41e-2MAT (E. coli (origin of the scaffold protein, Table 1)); assay: as above

Substance 2F5 antibody has an EC50 (read off the curve) [1] of 0.2 µg/mL, an EC50 (read off the curve) [2] of 0.2 µg/mL and a Kd [3] of 5.09 nM. For the same substance, the koff [3] was 0.00269 s⁻¹, the kon [3] was 528000 M⁻¹ s⁻¹ and the Kd [4] was 6.45 nM. For the same substance, the koff [4] was 0.00356 s⁻¹, the kon [4] was 552000 M⁻¹ s⁻¹ and the Kd [5] was 2.63 nM. The koff [5] was 0.00287 s⁻¹, the kon [5] was 1.09e+06 M⁻¹ s⁻¹ and the Kd [6] was 10.7 nM. The koff [6] was 0.00396 s⁻¹, the kon [6] was 369000 M⁻¹ s⁻¹ and the Kd [7] was 9.35 nM. For the same substance, the koff [7] was 0.000679 s⁻¹ and the kon [7] was 72600 M⁻¹ s⁻¹.
